Laboratory results reported in article PMC4546514.
Where “and” joins values, the source holds several entries; their conditions need not be identical. Equal entries are not always repeated. Where two headings read alike, the source gives them in different places.

Assays:
[1] = target: purified recombinant Ded1p (S. cerevisiae) (UniProt P06634); assay: cross-linking
[2] = target: purified recombinant Ded1p (S. cerevisiae) (UniProt P06634); assay: cross-linking; remark: listed apart in the source

stoichiometry N [1]: < 5 | stoichiometry N [2]: 2 and 3
Substance: purified recombinant Ded1p (from UniProt P06634 1-604) (natural protein; other documents disagree on this pair)
